# Measurements reported in IntAct's records for PubMed 26744420.
# B1: PAX-interacting protein 1 (Mus musculus), Q6NZQ4 (parent)
# chain: MSEPAPEVPEELFREVKYYAVGDIDPQVIQLLKAGKAKEVSYNALASHIISEDGDNPEVGEAREVFDLPVVKPSWVTLSVQCGALLPVNGFSPESCQIFFGLTACLSQVSSEDRSALWALVTFHGGSCQLNLNKKCTHLIVPEPKGEKYERAVKRTSIKIVTPDWVLDCVSEKRRKDEAFYHPRLIIYEEEEEEEEEGDNEEQDSQNEGSTEKSSVASSAVASPAEQPCSPKPRAEVSKGELMFDDSSDSSPEKQERSLNWAPAEAPPLNTAQRRLPQGKGPGLINLCANVPPVPGDILPPDMRGNLMAPGQNLQNSERSEILGTWSPAVRTLRNITNNADIQQINRPSNVAHILQSLSAPTKSLEQQVARGQQGHPNASAVLFGQAKGAPETHVLQQHHPPQQPQQQHPALHLQPQIMQLQQQQQQQQQQQQQPQPYPQPPSHQFPQQVHQHQFSQQQLQFPQQPLHPQQQLHRPQQQLQPFQQQHALQQQLHQLQQQQLQHHQLAQLQQQQQQQHNLLQQQQQQQQLQRLQQQQQMQNQAAHLSQASQALQHQVLPQQPLQLSLQPPPQQQQQQQLFGHDPAVEIPEESFLLGCVFAIADYPEQMSDKQLLATWKRIIQAHGGTVDPTFTSRCTHLLCASQVSSMYTQALRERKRCVTAHWLNTVLKKKKLMPPHRALHFPVAFPPGGKPCSQHIISVTGFVDNDRDDLKLMAYLAGAKYTGYLCRSNTVLICKEPSGLKYEKAKEWRIPCVNAQWLGDILLGNFEALRQVQYSRYTAFNMPDPFVPTPHLVLGLLDAWRTPVKVTAELLMGVRLPPKLKPNEVANIQPSSKRARIEDLPPPTKKLTPELTPLVLFTGFEPVQVQQYIKKLYILGGEVAECTKKCTHLIASKVTRTVKFLTAISVVKHIVTPDWLEECFKRQTFIDEQNYILRDAEAEVLFSFSLEESLKRAHVSPLFKTKYFYITPGICPSLATMKAIVECAGGKVLAKQPSFRKLMEHKQNKSLSEIILISCENDLHLCREYFARGIDVHNAEFVLTGVLTQTLDYESYKFN
# Variants of: B1
# Conditions: with pgr1a_mouse Pagr1a
row,effect of a mutation on the interaction,Variant
1,disrupting interaction,W165R
